Measurements as given in patent US20200188499A1.

Tests used:
[1] = biological target: VARITECT (human polyclonal antibodies directed against Varicella Zoster antigens); assay: inhibition ELISA with VARITECT; gE content by ELISA divided by Lowry protein; lyophilised gE
[2] = biological target: VARITECT (human polyclonal antibodies directed against Varicella Zoster antigens); assay: inhibition ELISA with VARITECT; gE content divided by titer of the standard; control VZV gE vaccine
[3] = biological target: VARITECT (human polyclonal antibodies directed against Varicella Zoster antigens); assay: inhibition ELISA with VARITECT; gE content by ELISA divided by Lowry protein; control VZV gE vaccine
[4] = biological target: VARITECT (human polyclonal antibodies directed against Varicella Zoster antigens); assay: inhibition ELISA with VARITECT; gE content divided by titer of the standard; lyophilised gE
[5] = biological target: VARITECT (human polyclonal antibodies directed against Varicella Zoster antigens); assay: inhibition ELISA with VARITECT; gE content divided by titer of the standard; co-lyophilised gE/AS01
[6] = biological target: VARITECT (human polyclonal antibodies directed against Varicella Zoster antigens); assay: inhibition ELISA with VARITECT; gE content by ELISA divided by Lowry protein; gE before lyophilisation
[7] = biological target: VARITECT (human polyclonal antibodies directed against Varicella Zoster antigens); assay: inhibition ELISA with VARITECT; gE content by ELISA divided by Lowry protein; co-lyophilised gE/AS01
[8] = biological target: VARITECT (human polyclonal antibodies directed against Varicella Zoster antigens); assay: inhibition ELISA with VARITECT; gE content by ELISA divided by Lowry protein; sample gE/AS01 before lyophilisation

VZV gE antigen (truncated form of the Varicella Zoster Virus glycoprotein E) (from UniProt P09259 31-546)
Antigenic activity (gE/prot) [1]: 1.01 | Potency [2]: 0.92 | Antigenic activity (gE/prot) [3]: 1.15 | Potency [4]: 0.98 | Potency [5]: 1.02 | Antigenic activity (gE/prot) [6]: 1.05 | Antigenic activity (gE/prot) [7]: 0.99 | Antigenic activity (gE/prot) [8]: 0.96
